Results: paper PMC7567884

These sequences were tested against T1, His-LexA (Synechocystis sp. PCC 6803) (UniProt P73722) (assay: EMSA). Conditions: DIG Gel Shift Kit 2nd generation (Roche), as in Kizawa et al. (ref 9); 6% polyacrylamide gel; buffer, salt, pH and temperature not given.
T1 sequence: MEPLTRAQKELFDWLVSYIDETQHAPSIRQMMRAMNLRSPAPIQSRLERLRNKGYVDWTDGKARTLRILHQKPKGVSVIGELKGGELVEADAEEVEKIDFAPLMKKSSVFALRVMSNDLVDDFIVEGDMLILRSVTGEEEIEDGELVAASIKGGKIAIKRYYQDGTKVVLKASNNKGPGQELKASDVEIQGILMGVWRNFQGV
For “TTTTTCACAACCTAAGACTTCCTTCCAAAAATCCATAGGGCGGTGGAAGCTTAGCTATTTTTACCATTTTGTTTTGCCACTCAAATATTTACTTAAGGTGAGGTAAAAACTCATCTTTTTTTTACTAAAAATTGCGGCTAGAAATGTAATTTCGGCAATCCCCCCACCTTCTTTCCTGAAAACCGAATCTAACCTGGAAGGGGAAATTTTAAGATAGAACCATTCAAGGGTAATCAATTCCTTCCACACATCAGGAGTTAACATT (double strand) [PhspA]”, the binding was “binds”. In the case of “TAACTCGTCACACCCCATGTGGGCAATGGTATCGTATTCTGCCCAGGTTTCCACCCCTTCAGCCGTTACTCGCAACTCTAGTTCGTGGGCTAGGTTGATAATTGAGGCGGTGATAGTTTTATTCTTGGCGTTTTTGTCAATGTGACGCACAAAGCTTTGATCTATTTTCAGCACATCAAAGGGGAACTGCTGCAGATAAC (double strand) [PggpP]”, the binding was “binds”. For “TGGGATCAAACAACAAGAAAAAATCAATTTACCCTGCCCATGGCAATAGTTTTAAGGTTAACAAAAAAAATAGAATTTACCGCAATCGACGGGTAAATTTCCAGAGGATACCCCCAACTCCAGAAGCAGAAATCTTGCCAGAAAAGCTTTTTCTGTTACTATACTTAACAAGTAACTACTTTTTCC (double strand) [PggpS]”, the binding was “binds”. With “GTGGGAAAGTTCCACCTATACCATGCCTTGAAAATTGGTATGGGTCAAATCAGATAGTTCTTTTTGACTACTAATTTTGTTGCTAGCAGCGTTGTCAATCCCATCGCTCTGGTCTGGGATGCAAATGGCAGGAAAATTCTGCTCCCCTTGGGGGAAACGAGTTACGATGGGGGCGACGTTTGCTTTGTTTGCGACATAAT (double strand) [PggtB]” the binding was “binds”. For “TGGGCAGGGTAAATTGATTTTTTCTTGTTGTTTGATCCCATTTTCCAGTCTTTTTGACTTCCATTCAGTCAGGATAATTTTTGCAGTTTTTTTATGGAGTTTTGATAACATTGAGCTTTGCCCCCGGCGATCGCCTAGGGATAAACAATAAACGTGTGAACTAATATGCCTGGATTTATCCCTGGATTGACATTGTTTTTGCC (double strand) [PgghA]”, the binding was “binds”. “TGCAATTTCCTCCTGTCCTCAGGGGACAAACTATATTAAGAAAGTTTACGGGATTATGTTGCCCGGGGAGAATTTGTCCGTGGGGGGTTTACCGACCGATCGCCGGTGAGAAGTACCAGGATAGCTTTATAAAGTTTTGTTACAATGGCAGAAGAAATTCTCAGAAACCCAGCC (double strand) [PnblB]” was tested, and the binding was “binds”.
